Experimental data from US20210163606A1.
Residue numbers refer to the chain shown, from its start. Each block holds one binder with its values, some of them ahead of it.

Key:
[1] = molecular target: Human NRP2 (aa23-855) with C-terminal Avi-, Myc- and His-tags (Human) (UniProt O60462); test: SPR (ProteOn XPR36), antibody captured on anti-human Fab-kappa, NRP2 as analyte, 1:1 Langmuir fit
[2] = molecular target: Human NRP2 (aa23-855) with C-terminal Avi-, Myc- and His-tags (Human) (UniProt O60462); test: SPR as described for Table E1 (human NRP2 antigen); the antigen for this mouse-IgG1 surrogate is not said separately

Kd [1]: 0.2 nM
B1: aNRP2-10v5 (antibody, V domains shown)
VH: EVQLVQSGAEVKKPGATVKISCKVSGFNIKDYYIHWVQQAPGKGLEWMGRIDVEDDETKYAPKFQGRVTITADTSTDTAYMELSSLRSEDTAVYYCATPIYGSREAWFAYWGQGTLVTVSS
VL: DIQMTQSPSSLSASVGDRVTITCTASSSVSSSYLHWYQQKPGKAPKLLIYRTSNLASGVPSRFSGSGSGTDFTLTISSLQPEDFATYYCHQYYRSPPTFGGGTKVEIK

Kd [1]: 0.358 nM
B2: aNRP2-10v13 (antibody, V domains shown)
VH: B1 VH with I34V, E54H, S103A
VL: B1 VL

Kd [1]: 0.029 nM
B3: aNRP2-10v10 (antibody, V domains shown)
VH: B1 VH with I34V, S103A
VL: B1 VL

Kd [1]: 17 nM
B4: aNRP2-1v3 (antibody, V domains shown)
VH: QVQLVQSGAEVKKPGASVKVSCKASGYTFTSYWMHWVRQAPGQGLEWMGAIYPGNSDTSYNQQFKGRVTMTRDTSTSTVYMELSSLRSEDTAVYYCARRGGGYFDYWGQGTLVTVSS
VL: DIQLTQSPSFLSASVGDRVTITCKASQNVGAAVAWYQQKPGKAPKLLIYSASNRYTGVPSRFSGSGSGTEFTLTISSLQPEDFATYYCQQYSSYPLLTFGGGTKVEIK

Kd [1]: 0.17 nM
B5: aNRP2-14v10 (antibody, V domains shown)
VH: QLQLVESGGGVVQPGRSLRLSCTVSGFSLTSYGVHWVRQAPGKGLEWVGLIWSGGSTDYSPAFISRFTISEDNSKSTVYLQMNSLRAEDTAVYFCARNSYSSGYYAMDYWGQGTTVTVSS
VL: B4 VL with A31T, Y91R, S93R, L96P, L97Y

Kd [1]: 0.15 nM
B6: aNRP2-14v9 (antibody, V domains shown)
VH: B5 VH
VL: B4 VL with A31H, S93R, L96P, L97Y

Kd [2]: 0.0599 nM
B7: aNRP2-28v2/4 (antibody, V domains shown)
VH: QSVKESEGGLFKPTDTLTLTCTVSGFSLSTYSISWVRQAPGNGLEWIGIIGDAGGIIYATWAKSRSTITRSTALNTVTLKMTGLTAADTATYFCARDGTAFDIWGPGTLVTVSS
VL: AYDMTQTPASVEVVVGGTVTIKCQASQSIYSKLGWYQQKPGQPPKLLIYRASTLASGVSSRFKGSGSGTEYTLTISGVQCDDAATYYCQQDYSYINVDNIFGGGTEVVVK

Kd [1]: 2.7 nM
B8: aNRP2-2v4 (antibody, V domains shown)
VH: QVQLVQSGAEVKKPGASVKVSCKASGYTFTSYWMHWVRQAPGQGLEWMGVIHPNSASTFYNERFKTRATMTVDRSSSTAYMELSSLRSEDTAVYYCSRPGTVRRSDYWGQGTTVTVSS
VL: DVVMTQSPLSLPVTLGQPASISCRSSQNIVHSTGNTYLEWYQQRPGQSPRLLIYKVSNRFSGVPDRFSGSGSGTDFTLKISRVEAEDVGVYYCFQGSHVPWTFGGGTKVEIK

Kd [1]: 0.95 nM
B9: aNRP2-11v7 (antibody, V domains shown)
VH: QVQLVQSGAEVKKPGASVKVSCKASGYTFTSFGISWVRQAPGQGLEWIGEIYPRSGNTYYNENFKGRATMTADKSTSTAYMELRSLRSDDTAVYYCARSSGYYGSTPFPYWGQGTLVTVSS
VL: DIQMTQSPSSLSASVGDRVTITCRASQDISNYLNWYQQKPGKAVKLLIYYTSRLHSGVPSRFSGSGSGTDYTFTISSLQPEDIATYYCQQGNTLPWTFGGGTKVEIK
